Assay results taken from the supplement of paper PMC9112550, “Optimization of the antimicrobial peptide Bac7 by deep mutational scanning” (BMC Biology, 2022).

System: Escherichia coli TOP10
Experiment: shrunken log2 fold change of peptide-encoding DNA abundance (4.5 h post-induction vs induction); higher = less antimicrobial activity (less host growth inhibition)
Settings: time post-induction: 4.5 h; library: site-saturation at positions 5, 18, 19, 20
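Also: peptides expressed intracellularly from a pBAD plasmid library in pooled LB shake-flask culture, induced with 0.3% L-arabinose, DNA abundance read by NGS, three biological replicates, DESeq2 with apeglm shrinkage.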

Point of comparison: RRIRFRPPRLPRPRPRPISFPRP, “shrunken log2 fold change” value -0.0661. Against it:
- RRIRNRPPRLPRPRPRPWNVPRP — within 0.2 log units, 0.00489
- RRIRYRPPRLPRPRPRPWQKPRP — within 0.2 log units, -0.166
- RRIRIRPPRLPRPRPRPEECPRP — within 0.2 log units, 0.0287
- RRIRHRPPRLPRPRPRPLMKPRP — lower, -0.581
- RRIRSRPPRLPRPRPRPAWDPRP — higher, 0.281
- RRIRLRPPRLPRPRPRPQRYPRP — lower, -0.307
- RRIRWRPPRLPRPRPRPQCEPRP — within 0.2 log units, -0.0451
- RRIRRRPPRLPRPRPRPTAIPRP — higher, 0.211
- RRIRRRPPRLPRPRPRPNPCPRP — within 0.2 log units, 0.0776
- RRIRHRPPRLPRPRPRPTVKPRP — within 0.2 log units, -0.255
- RRIRMRPPRLPRPRPRPDAEPRP — higher, 4.37
- RRIRWRPPRLPRPRPRPNGQPRP — higher, 0.158
- RRIRMRPPRLPRPRPRPKCVPRP — within 0.2 log units, 0.0964
- RRIRYRPPRLPRPRPRPCKAPRP — within 0.2 log units, -0.073
- RRIRKRPPRLPRPRPRPCGHPRP — within 0.2 log units, 0.0693
- RRIRQRPPRLPRPRPRPRQSPRP — within 0.2 log units, 0.0272
- RRIRWRPPRLPRPRPRPALQPRP — higher, 0.367
- RRIRPRPPRLPRPRPRPVWQPRP — higher, 0.23
- RRIRQRPPRLPRPRPRPWDDPRP — within 0.2 log units, -0.00146
- RRIRYRPPRLPRPRPRPKIKPRP — lower, -0.583
- RRIRLRPPRLPRPRPRPQNIPRP — lower, -0.512
- RRIRERPPRLPRPRPRPNGLPRP — within 0.2 log units, -0.0319
- RRIRRRPPRLPRPRPRPKISPRP — higher, 0.14
- RRIRQRPPRLPRPRPRPKNVPRP — higher, 0.225
- RRIRRRPPRLPRPRPRPEECPRP — within 0.2 log units, 0.00164
- RRIRDRPPRLPRPRPRPHSIPRP — within 0.2 log units, 0.0345
- RRIRARPPRLPRPRPRPDYEPRP — within 0.2 log units, 0.00147
- RRIRRRPPRLPRPRPRPESHPRP — higher, 0.589
- RRIRFRPPRLPRPRPRPVYVPRP — lower, -0.93
- RRIRFRPPRLPRPRPRPLIPPRP — lower, -0.651
- RRIRQRPPRLPRPRPRPLVNPRP — within 0.2 log units, -0.0122
- RRIRHRPPRLPRPRPRPGMWPRP — within 0.2 log units, -0.0849
- RRIRPRPPRLPRPRPRPEGIPRP — within 0.2 log units, -0.00608
- RRIRNRPPRLPRPRPRPPGWPRP — higher, 1.24
- RRIRWRPPRLPRPRPRPKWDPRP — higher, 0.185
- RRIRCRPPRLPRPRPRPYPGPRP — within 0.2 log units, -0.0268
- RRIRNRPPRLPRPRPRPHQSPRP — within 0.2 log units, -0.104
- RRIRCRPPRLPRPRPRPIALPRP — within 0.2 log units, -0.102
- RRIRKRPPRLPRPRPRPHIMPRP — within 0.2 log units, -0.0414
- RRIRIRPPRLPRPRPRPSPNPRP — lower, -0.735
- RRIRIRPPRLPRPRPRPDQFPRP — lower, -0.321
- RRIRGRPPRLPRPRPRPAMDPRP — higher, 0.491
- RRIRPRPPRLPRPRPRPFQPPRP — within 0.2 log units, -0.0843
- RRIRVRPPRLPRPRPRPGKIPRP — lower, -0.346
- RRIRWRPPRLPRPRPRPATRPRP — higher, 0.38
- RRIRDRPPRLPRPRPRPWFRPRP — lower, -0.44
- RRIRFRPPRLPRPRPRPTKKPRP — within 0.2 log units, -0.0226
- RRIRVRPPRLPRPRPRPHKTPRP — within 0.2 log units, -0.127
- RRIRFRPPRLPRPRPRPKRRPRP — within 0.2 log units, 0.0555
- RRIRKRPPRLPRPRPRPKWQPRP — within 0.2 log units, 0.0343
- RRIRRRPPRLPRPRPRPLNMPRP — within 0.2 log units, -0.126
- RRIRMRPPRLPRPRPRPRAGPRP — higher, 1.08
- RRIRHRPPRLPRPRPRPKYDPRP — within 0.2 log units, -0.246
- RRIRNRPPRLPRPRPRPSWDPRP — within 0.2 log units, 0.039
- RRIRTRPPRLPRPRPRPWTYPRP — within 0.2 log units, -0.00992
- RRIRVRPPRLPRPRPRPWDHPRP — within 0.2 log units, -0.103
- RRIRPRPPRLPRPRPRPCTMPRP — within 0.2 log units, -0.191
- RRIRDRPPRLPRPRPRPSNIPRP — within 0.2 log units, -0.182
- RRIRLRPPRLPRPRPRPKHTPRP — higher, 0.228
- RRIRGRPPRLPRPRPRPCINPRP — higher, 0.573
- RRIRRRPPRLPRPRPRPKWQPRP — within 0.2 log units, -0.175
- RRIRIRPPRLPRPRPRPQMTPRP — lower, -0.733
- RRIRTRPPRLPRPRPRPNKLPRP — within 0.2 log units, -0.127
- RRIRNRPPRLPRPRPRPLRNPRP — higher, 0.267
- RRIRIRPPRLPRPRPRPCWNPRP — lower, -0.301
- RRIRVRPPRLPRPRPRPIDYPRP — within 0.2 log units, 0.0808
- RRIRDRPPRLPRPRPRPWRDPRP — within 0.2 log units, -0.0505
- RRIRERPPRLPRPRPRPLANPRP — within 0.2 log units, -0.225
- RRIRWRPPRLPRPRPRPIWYPRP — within 0.2 log units, -0.149
- RRIRPRPPRLPRPRPRPALQPRP — within 0.2 log units, 0.0721
- RRIRFRPPRLPRPRPRPCIIPRP — lower, -0.568
- RRIRARPPRLPRPRPRPTVPPRP — higher, 0.56
- RRIRWRPPRLPRPRPRPWGEPRP — within 0.2 log units, 0.039
- RRIRIRPPRLPRPRPRPRCHPRP — lower, -0.466
- RRIRVRPPRLPRPRPRPKPEPRP — higher, 0.326
- RRIRPRPPRLPRPRPRPVGQPRP — within 0.2 log units, 0.102
- RRIRNRPPRLPRPRPRPMFCPRP — within 0.2 log units, 0.0294
- RRIRNRPPRLPRPRPRPGYDPRP — higher, 0.166
- RRIRTRPPRLPRPRPRPFERPRP — within 0.2 log units, -0.0347
- RRIRARPPRLPRPRPRPHKPPRP — higher, 0.148
- RRIRMRPPRLPRPRPRPPGKPRP — higher, 0.978
- RRIRKRPPRLPRPRPRPGGTPRP — higher, 0.504
- RRIRERPPRLPRPRPRPASKPRP — within 0.2 log units, -0.12
- RRIRKRPPRLPRPRPRPSSPPRP — lower, -0.563
- RRIRIRPPRLPRPRPRPGEFPRP — within 0.2 log units, -0.0994
- RRIRWRPPRLPRPRPRPYGQPRP — within 0.2 log units, 0.051
- RRIRMRPPRLPRPRPRPMFQPRP — within 0.2 log units, -0.228
- RRIRLRPPRLPRPRPRPCWCPRP — within 0.2 log units, 0.0793
- RRIRLRPPRLPRPRPRPIGWPRP — higher, 0.156
- RRIRIRPPRLPRPRPRPPAHPRP — higher, 0.139
- RRIRRRPPRLPRPRPRPVQEPRP — within 0.2 log units, -0.00475
- RRIRVRPPRLPRPRPRPLKIPRP — within 0.2 log units, -0.0769
- RRIRFRPPRLPRPRPRPSVCPRP — within 0.2 log units, -0.16
- RRIRHRPPRLPRPRPRPSGSPRP — within 0.2 log units, -0.175
- RRIRGRPPRLPRPRPRPGSTPRP — higher, 0.75
- RRIRDRPPRLPRPRPRPYKLPRP — lower, -1.01
- RRIRIRPPRLPRPRPRPAMNPRP — lower, -0.495
- RRIRARPPRLPRPRPRPPYWPRP — higher, 0.376
- RRIRQRPPRLPRPRPRPAQPPRP — higher, 0.187
- RRIRQRPPRLPRPRPRPHYPPRP — within 0.2 log units, -0.219
- RRIRQRPPRLPRPRPRPNDAPRP — within 0.2 log units, -0.0276
- RRIRPRPPRLPRPRPRPWRHPRP — within 0.2 log units, -0.0659
- RRIRMRPPRLPRPRPRPRELPRP — higher, 1.54
- RRIRIRPPRLPRPRPRPYGAPRP — within 0.2 log units, -0.199
- RRIRERPPRLPRPRPRPFFVPRP — lower, -0.292
- RRIRYRPPRLPRPRPRPNAMPRP — within 0.2 log units, -0.166
- RRIRERPPRLPRPRPRPVIQPRP — within 0.2 log units, 0.0166
- RRIRMRPPRLPRPRPRPLYIPRP — lower, -1.01
- RRIRCRPPRLPRPRPRPDWAPRP — within 0.2 log units, 0.0311
- RRIRHRPPRLPRPRPRPDKTPRP — within 0.2 log units, 0.0185
- RRIRMRPPRLPRPRPRPFEWPRP — higher, 0.174
- RRIRKRPPRLPRPRPRPHSFPRP — within 0.2 log units, -0.0644
- RRIRIRPPRLPRPRPRPGFNPRP — within 0.2 log units, -0.135
- RRIRVRPPRLPRPRPRPNVSPRP — within 0.2 log units, -0.0331
- RRIRPRPPRLPRPRPRPKREPRP — within 0.2 log units, 0.1
- RRIRWRPPRLPRPRPRPQDVPRP — within 0.2 log units, -0.0384
- RRIRKRPPRLPRPRPRPQYCPRP — within 0.2 log units, -0.0171
- RRIRWRPPRLPRPRPRPRWFPRP — higher, 0.999
- RRIRARPPRLPRPRPRPFCAPRP — higher, 0.394
- RRIRGRPPRLPRPRPRPPPFPRP — higher, 0.887
- RRIRQRPPRLPRPRPRPRMIPRP — within 0.2 log units, -0.227
- RRIRGRPPRLPRPRPRPHERPRP — higher, 0.878
- RRIRCRPPRLPRPRPRPAGWPRP — higher, 0.719
- RRIRRRPPRLPRPRPRPYQEPRP — within 0.2 log units, -0.259
